Here are results for one molecule from publication doi:10.1101/2025.06.13.659133.

The test has as its target dual specificity anti-activin A/B antibody (human IgG1 format) (human). Description: BLI. For orientation: Biolayer interferometry detects binding as a change in optical thickness at a sensor tip.

B1: mature human activin A (ligand)
chain: GLECDGKVNICCKKQFFVSFKDIGWNDWIIAPSGYHANYCEGECPSHIAGTSGSSLSFHSTVINHYRMRGHSPFANLKSCCVPTKLRPMSMLYYDDGQNIIKKDIQNMIVEECGCS
What is called Kd is the free concentration of one partner at which half of the binding sites on the other are occupied at equilibrium, for simple one-to-one binding. High values mean lower affinity, low ones higher affinity. For B1, the Kd amounted to 130 pM.
